Values joined by “and” are separate entries in the source; they are usually repeats but may differ in a detail not shown here. Equal values may be shown once. “Also recorded” adds a separate entry of the source.
What was measured:
[1] = target: T1, isolated CC domain from Bcr-Abl (Homo sapiens, UniProt P11274); assay: Mammalian two-hybrid assay of coiled-coil dimerization; assay type: cell-based; conditions: isolated CC domain from Bcr-Abl
T1 construct: using the isolated CC domain from Bcr-Abl instead of the full-length protein; expressed in transfected cells
T1 sequence (P11274 1-72): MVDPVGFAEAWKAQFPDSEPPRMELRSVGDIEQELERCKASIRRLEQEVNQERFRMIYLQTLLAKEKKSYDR
Protocol: (§1) As mentioned above, the design process of CC^mut3 involved favoring hetero-dimerization with Bcr-Abl while avoiding homo-dimerization with another CC^mut3 molecule. Thus, a mammalian two-hybrid assay was performed to measure the likelihood of each scenario, using the isolated CC domain from Bcr-Abl instead of the full-length protein (for ease of use).

[2] = target: T2, isolated CC domain from Bcr-Abl (Homo sapiens, UniProt P11274, C38A/E48R/K39E/L45D/Q60E/S41R); assay: as above; assay type: cell-based; conditions: CC^mut3 with CC^mut3
T2 construct: using the isolated CC domain from Bcr-Abl instead of the full-length protein; expressed in transfected cells
T2 sequence (P11274 1-72 C38A/K39E/S41R/L45D/E48R/Q60E): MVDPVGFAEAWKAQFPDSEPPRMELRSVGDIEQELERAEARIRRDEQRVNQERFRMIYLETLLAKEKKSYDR
Protocol: as §1

[3] = test system: Ba/F3 cells expressing native BCR-ABL1 (Ba/F3-p210); assay: Colony forming assay of transfected Ba/F3-p210 cells; assay type: cell-based, mouse; conditions: CCmut3 alone vs EV or EGFP control
Protocol: Briefly, K562 or Ba/F3-p210 cells were transfected according to the protocol above. One day following transfection, 1.0×10^6 cells per transfection group were collected and re-suspended in sterile PBS. […] Finally, 1.1 mL of cell/methylcellulose mixture was seeded in duplicate and allowed to grow at 37° C. and 5% CO2 for 7 days. Colony formation was assessed by counting colonies in two 200 μm2 areas on the plate. Experiments were performed once in duplicate (n=1 in duplicate). All kit reagents and media were purchased from Stem Cell Technologies (Vancouver, BC, Canada).

[4] = test system: Ba/F3 cells expressing BCR-ABL1E255V/T315I; assay: Colony forming assay of Ba/F3 BCR-ABL1 E255V/T315I cells; assay type: cell-based, mouse; conditions: for colony formation, in words: CCmut3 gene delivery (transfection; b502 lentiviral infection) vs EV
Protocol: Following selection of transfected cells by cell sorting, viable cells were enumerated and seeded into methylcellulose as described previously (Dixon, A. S., et al. (2011) J. Biol. Chem. 286, 27751-27760). Briefly, mCherry-positive Ba/F3 cells were re-suspended in IMDM with 2% FBS (Stem Cell Technologies) at a concentration of 10,000 cells/mL. Three hundred microliters of this dilution was added to 3 mL of Methocult media (M3434—Ba/F3 p210 wild-type and mutant lines or M3234—Ba/F3 parental, Stem Cell Technologies). Approximately 1100 cells, or 1.2 mL, were seeded per dish in duplicate for each transfection. Colonies were counted 7 days later in an area of […] per dish.
Following selection of transfected cells by cell sorting, methylcellulose colony assays were performed by plating in 0.9% methylcellulose (Stem Cell Technologies; M3234 for Ba/F3 BCR-ABL1 native and mutant lines; M3434 for Ba/F3 parental cells; H4230 for CML patient samples). mCherry-positive Ba/F3 cells (1.1×10^3 cells/plate) or GFP-positive primary CML CD34+ cells (1×10^3 cells/plate) were seeded per dish in duplicate. In the case of CML patient samples, cells were plated in the presence of 1× StemSpan CC100 cytokine cocktail (StemCell Technologies). All cells were plated with or without the indicated TKI in three or more independent experiments. Plates were incubated at 37° C. in a 5% CO2 humidified incubator. Colonies were counted 7-14 days later in an area of 50 μm2 per dish using an inverted microscope.

K562 cells [5] = assay: Nuclear (DNA) segmentation apoptosis assay in transfected K562 cells; assay type: cell-based, human; conditions: 48 h, vs EGFP control
Protocol: CC^mut3 was then tested for its ability to induce apoptosis in K562 cells. Apoptosis was observed using 3 different methods: 1) nuclear segmentation; 2) induction of the effector Caspase-3/7; and 3) 7AAD/Annexin V staining.
Nuclear segmentation analysis was performed as previously described (16). Briefly, immediately prior to cellular analysis, 2-well live cell chambers were treated for 15 min with poly-L-lysine (Sigma-Aldrich, St. Louis, Mo., USA), to allow cell adhesion in the wells. Forty-eight h following transfection, the transfected K562 cells were transferred to the pretreated 2-well live cell chambers. Cells were incubated for 15 min at 37° C. following the addition of 0.3 μL Hoechst H33342 nuclear stain (Life Technologies, Carlsbad, Calif., USA). Cells were then imaged using an inverted fluorescence microscope (Olympus IX701F, Scientific Instrument Co., Sunnyvale, Calif., USA) equipped with an F-view Monochrome CCD camera. Fields of view were selected based on EGFP fluorescence when viewing using a 40× oil immersion objective. Nuclei from cells that were positively transfected (positive for EGFP fluorescence) were categorized as either healthy (round or kidney-shaped nuclei) or segmented (punctate staining of nuclei), and the percentage of cells with segmented DNA was calculated (n=3 in replicate).

parental Ba/F3 cells = assay: Annexin V/7-AAD apoptosis assay in transfected parental Ba/F3 cells; assay type: cell-based, mouse; conditions: 72 h, CCmut3 vs EV
Protocol: (§2) For analysis of apoptosis and cell death, cells were pelleted and resuspended in Annexin V-binding buffer (BD Biosciences), stained with anti-Annexin V-APC (BD Biosciences or Life Technologies) and 7-AAD (BD Biosciences or Life Technologies) and analyzed on a BD FACSCanto flow cytometer. In addition to the APC and 7-AAD channels, GFP- and mCherry-positive cells were also recorded.
as §2, with “apoptosis and necrotic cell death,” for “apoptosis and cell death,”, “anti-Annexin V-APC and 7-AAD” for “anti-Annexin V-APC (BD Biosciences or Life Technologies) and 7-AAD”

[6] = test system: Ba/F3 cells expressing native BCR-ABL1 (Ba/F3-p210); assay: Annexin V/7-AAD apoptosis assay in transfected Ba/F3-p210 cells; assay type: cell-based, mouse
Protocol: Assays were run in triplicate (n=3).
as §2
as §2, with “apoptosis and necrotic cell death,” for “apoptosis and cell death,”, “anti-Annexin V-APC and 7-AAD” for “anti-Annexin V-APC (BD Biosciences or Life Technologies) and 7-AAD”

[7] = test system: Ba/F3 cells expressing BCR-ABL1E255V; assay: Annexin V/7-AAD apoptosis assay in Ba/F3 BCR-ABL1 E255V cells; assay type: cell-based, mouse; conditions: 72 h, CCmut3 vs EV
Protocol: as §2
as §2, with “apoptosis and necrotic cell death,” for “apoptosis and cell death,”, “anti-Annexin V-APC and 7-AAD” for “anti-Annexin V-APC (BD Biosciences or Life Technologies) and 7-AAD”

K562 cells [8] = assay: Cell proliferation (trypan blue) of protein-treated K562 cells; assay type: cell-based, human; conditions: proteins 30 μM or imatinib
Protocol: Independent treatments were tested three times (n=3).

B1: CCmut3: modified Bcr-Abl coiled-coil domain (residues 1-72) with mutations C38A, K39E, S41R, L45D, E48R, Q60E (protein)
chain: MVDPVGFAEAWKAQFPDSEPPRMELRSVGDIEQELERAEARIRRDEQRVNQERFRMIYLETLLAKEKKSYDR
[1]
  hetero-dimerization with BCR-ABL: favors hetero-dimerization; also recorded: strongly favors hetero-dimerization
[2]
  homo-oligomerization: strongly disfavoring homo-oligomerization
[3]
  colony formation, in words: greatly reduced; also recorded: nearly eliminated colony forming ability
[3]; listed as CC^mut3
  colony formation, in words: greatly reduced; also recorded: nearly eliminated CFCs; also recorded: significantly lower than the EGFP control
[4]
  colony formation, in words: again reduced
[4]; listed as CC^mut3
  colony formation, in words: reduced; also recorded: Inhibition in colony formation
[4]; CCmut3 vs EV
  reduction of CFCs / colony forming ability compared to EV: approximately 50%
K562 cells [5]
  induction of apoptosis (nuclear/DNA segmentation): increase in apoptosis; also recorded: significantly induced apoptosis
K562 cells [5]; listed as CC^mut3
  induction of apoptosis (nuclear/DNA segmentation): induces apoptosis; also recorded: causing apoptosis via nuclear segmentation
Parental Ba/F3 cells
  apoptosis, in words: no effect on parental Ba/F3 cells; also recorded: no effect on the parental cell line
Parental Ba/F3 cells; listed as CC^mut3
  apoptosis, in words: not affected; also recorded: no effect on the parental cells
[6]; 72 h, CCmut3 vs EV
  apoptosis, in words: increases apoptosis
  increase of apoptotic cells: approximately 3 fold
[6]; CC^mut3 versus EV control (FIG. 14B)
  increase in apoptotic population: more than 30%
[7]
  apoptosis, in words: increase of apoptosis
  increase in apoptosis: 6-8 fold and > 5 fold
[7]; listed as CC^mut3
  apoptosis, in words: significant shift toward the apoptotic fraction
  increase in apoptosis: 6-8 fold
K562 cells [8]
  cell proliferation: ineffective at reducing cell proliferation and colony forming compared to untreated cells
